# Data as given in the nanobody polyreactivity screen of Harvey et al. (2022).
# Experiment: yeast display, Sf9 membrane polyspecificity reagent, FACS + sequencing; frameworks hold sequencing errors
# In short: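 After 36–48 hours of galactose induction, yeast (Saccharomyces cerevisiae BJ5465) displaying a synthetic nanobody library were stained at 4 °C for 1 hour with 10% biotinylated, detergent-solubilized Sf9 membrane reagent. Streptavidin microbeads enriched the stained cells before FACS sorting into low and high (top ~1%) gates on anti-HA and streptavidin fluorescence. Each clone's polyreactivity label reflects its gate of origin.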
row,Sequence,polyreactivity (PSR sort gate)
1,QVQHVESGGGLVQAGGSLRLSCAASGGTFYSYAMGWYRQAPGKERELVAAISRRGGSTYYADSVKGRFTISRDNAKNTVYLQLNSLKPEDTAVYYCAAKGPSYGVTRMYYWGQGTQVTVSS,high polyreactivity
2,QVQHVESGGGLVQAGGSLRLSCAASGIIFLFYAMGWYRQARGKERELVAAITGAGSTNYADSVKGRFTISRDNAKNTVYLQMNRLKPEDTAVYYCAARHYARYDYWGQGTQVTVSS,low polyreactivity
3,QVQHVESGGGLVQAGGSLRLSCAASGITFRVNAMGWYRQAPGKERELVASISRSGGSTYYADSVKGRFTISRDNAKNTVYLQMNSLKPEVTAVYYCAAAQKVLFYGRWFDYWGQCTQVTVSS,low polyreactivity
4,QVQHVESGGGLVQAGGSLRLSCAASGITLNSYAMGWYRQAPGTERELVAAISSDGTYYADSVKGRFTISRDNAKNTVYLQMNSLKPEDTAVYYCAAERNHGLVGSESVGRNDYWGQGTQVTVSS,low polyreactivity
5,QVQHVESGGGLVQAGGSLRLSCAASGITYGRYTMGWYRQAPGKERELVAAITNGDITYYADSVKGRFTISRDNAKNTVYLQMNSLKQEDTAVYYCAADRYFWYDYWGQGTQVTVSS,high polyreactivity
6,QVQHVESGGGLVQAGGSLRLSCAASGLIFTTYAMGWYRQAPGKERELVADINSDGSTYYADSVKGRFTISRDNAKNTVYLQMNSLKPEDTAVYYCAASSYYTITYKLIYWRNYDYWGHGTQVTVSS,low polyreactivity
7,QVQHVESGGGLVQAGGSLRLSCAASGLTFHQYAMGWYRQAPGKERELVAAITGSGGSTYYADSVKGRVTISRDKAKNTVYLQMYSLKPEDTAVYYCAAKTYRRGGGYWGQGSQVTVSS,high polyreactivity
8,QVQHVESGGGLVQAGGSLRLSCAASGLTFKANAMGWYRQAPGKERELVAAITWSGTSTYYADSVKGRFTISRDNAKNTVYLQMNRLKPEDTAVYYCNKPYDVWYHDYDYWGQGTQVTVSS,low polyreactivity
9,QVQHVESGGGLVQAGGSLRLSCAASGLTSRYYAMGWYRQAPGKERELVAAISSRGGRTYYADSVKGPFTISRDNAKNTVYLQMNSLKPEDTAVYYCNAVRGYSGNLRDYWGQGTQVTVSS,high polyreactivity
10,QVQHVESGGGLVQAGGSLRLSCAASGRIFGTNAMGWYRQAPGKERELVAAINGSDSSTYYADSVKGRFTISRDNAKNTVYLQMNSLKPEDTAVYYCNADWSGAPERSTDGYDYWGQGTQVTVSS,low polyreactivity
11,QVQHVESGGGLVQAGGSLRLSCAASGRIFHGYAMGWYRQSPGKERELVAAITSRGGSTYYADSVKGRFTISRDNAKNTVYLQMNSLKPEDTAVYYCNAGRYLYAFDYWGQGTQVTVSS,low polyreactivity
12,QVQHVESGGGLVQAGGSLRLSCAASGRIFPYKAMGWYRQAPGKERELVAAISKSGVRTYYADSVKGRFTISRDNAKNTVYLQMNSLKPEDTAVYYCARGGYPGSAEYDYWGQGTQVTVSS,high polyreactivity
13,QVQHVESGGGLVQAGGSLRLSCAASGRIFPYYAMGWYRQAPGKERELVATITSGGSTYYADSVKGRFTISRDNAKNTVYLQMNSLKPEDTAVYYCAARYPSIYYYSYDYWGQGTQVTVSS,high polyreactivity
14,QVQHVESGGGLVQAGGSLRLSCAASGRIFTFYTMGWYRQAPGKERELVAAINSGGSTYYADSVKGRFTISRDNAKNTVYLQMNSLIQEDTAVYYCNARVYPLWFRRGYDYWGQGTQVTVSS,high polyreactivity
15,QVQHVESGGGLVQAGGSLRLSCAASGRIFTYYTMGWYRQAPGKERELVAAISWSGGRTYYADSVKGRFTISRDNAKNTVYLQMNSLKPEDTAVYYCARLQDSRESPWRGYYWGQGTQVTVSS,high polyreactivity
16,QVQHVESGGGLVQAGGSLRLSCAASGRIIRGNVMGWYRQAPGKERELVATITSSARTYYADSVKGRFTISRDNAKNTVYLQMNSLKPEDTAVYYCANKQPRYRLRMNYWGQGTQVTVSS,high polyreactivity
17,QVQHVESGGGLVQAGGSLRLSCAASGRISQIYAMGWYRQAPGKERELVARITSTDSTYYADSVKGRFTISRDNAKNTVYLQMNSLKPEDTAVYYCAASWWSPYDYWGQGTQVTVSS,low polyreactivity
18,QVQHVESGGGLVQAGGSLRLSCAASGRTFAWYAMGRYRQAPGKERELVAAISSGGSTYYADSVKGRFTISRDNAKNTVYLQMNSLKPEDTAVYYCAAEWHYIYAYDYWGQGTQVTVSS,low polyreactivity
19,QVQHVESGGGLVQAGGSLRLSCAASGRTFFANAMGWYRQAPGKERELVAAITSNTGSTYYADSVKGRFTISRDNAKNTVYLQMNSLKPEDTAVYYCAARGSPRKWTFHYYYWGQGTQVTVSS,high polyreactivity
20,QVQHVESGGGLVQAGGSLRLSCAASGRTFFYNTMGWYRQAPGKERELVARITRGGSTYYADSVKGRFTISRDNAKNTVYLQMNSLKPEDTAVYYCAAGYWRGYLLYGFDYWGQGTQVTVSS,high polyreactivity
21,QVQHVESGGGLVQAGGSLRLSCAASGRTFLKNAMGWYRHAPVKERELVAAITSGGSTNYADSVKGRFTISRDNAKNTVYIQMNSLKPEDTAVYYCNAPSYWYYPVLGSFLTFDYWGQGTQVTVSS,low polyreactivity

row,Sequence,polyreactivity (PSR sort gate)
1,QVQHVESGGGLVQAGGSLRLSCAASGRTFRKNAMGWYRQAPGKERELVAAITGSSGTTYYADSVKGRFTISRDNAKNTVYLQMNSLKPEDTAVYYCATTVGDPGRRYYYWGQGTQVTVSS,high polyreactivity
2,QVQHVESGGGLVQAGGSLRLSCAASGRTFRNNAMGWYRQAPGKERELVAAITSGGSTYYADSVKGRFTISRDNAKNTVYLQMNSLKPEDTAVYYCAAVPEYYEYSPYDYWGQGTQVTVSS,low polyreactivity
3,QVQHVESGGGLVQAGGSLRLSCAASGRTFRRYAMGWYRQAPGKERELVAVITTGSTYYADSVKGRFTISRDNAKNTVYLQMNSLKPEDTALYYCAADFYRATARYEMDYWGQGTQVTVSS,high polyreactivity
4,QVQHVESGGGLVQAGGSLRLSCAASGRTFSYYTMGWYRQAPGKERELVARISNRGTNTYYADSVKGRFTISRDNAKYTVYLQMNSLKPEDYAVYYCAKYYYTSIVGYDSWGQGTQVTVSS,low polyreactivity
5,QVQHVESGGGLVQAGGSLRLSCAASGRTFVTYAMGWYRQAPGKERELVAAISKRGSRTYYADSVKGRFTISRDNAKNTVYLQMNSLKPEDTAVYYCNADPYRTSYDYWGQGTQVTVSS,high polyreactivity
6,QVQHVESGGGLVQAGGSLRLSCAASGRTFWINAMGWYRQARGKERELVAAITRGGRTYADSVKGRFTISRDNAKNSVYLQMNSLKPEDTAVYFCAADSYRLSGHHGYDFWGQGTQLTVSS,high polyreactivity
7,QVQHVESGGGLVQAGGSLRLSCAASGRTFYSYAMGWYRQAPGKERELVAAINSGGTTYYADSVKGRFTISRDNAKNTVYLEINSLKPEDTAVYYCAAVSYLFLYQGYPIAYPMYYWGQGTQVTVSS,low polyreactivity
8,QVQHVESGGGLVQAGGSLRLSCAASGRTFYSYAMGWYRQAPGKERELVAAISGRGGRTYYADSVKGRFTISRDNAKNTVYLQMNSLKPEDSAVYFCAKGGYAIRYYGFDYWGQGTQVTVSS,high polyreactivity
9,QVQHVESGGGLVQAGGSLRLSCAASGRTLYRYAMGWSRQAPRKERELVAAIRSGGRTNYADSVKGRFTISRDNAKNTVYLQMNSLKPEDTAVYYCAARTLRYPSTFEYWGQGTQVTVSS,high polyreactivity
10,QVQHVESGGGLVQAGGSLRLSCAASGSIFGRYAMGWYRPAPGKERELVAAITRSGVSTYYADSVTGRFTSARDNAKNTVDLQMNSLKPEDTAVYYCNAYYPIRSSPYGYYYWGQGTQVTVSS,high polyreactivity
11,QVQHVESGGGLVQAGGSLRLSCAASGSIFLIYAMGWYRPAPGKERELVAAITGGGTTNYADSVKGRFTISRDNAKHTVYFQMNSLKPEDTAVYYCNTLYLVYLYWTSPTPSDLFDYWGQGTQVTVSS,low polyreactivity
12,QVQHVESGGGLVQAGGSLRLSCAASGSIFNYYAMGWYRQAPGKERELVAAISKTGGSTYYADSVKGRFTISRDNAKNTVYLQMNSLKPEDTAVYYCNAVYASVSPTPYGYWGQGTQVTVSS,high polyreactivity
13,QVQHVESGGGLVQAGGSLRLSCAASGSIFSFNAMGWYRQAPGKERELVASISRNGGSTYYADSVKGRFTISRDNAKNTVYLQMNSLKPEDTAVYYCAVKVRNRRYGYWGQGTQVTVSS,high polyreactivity
14,QVQHVESGGGLVQAGGSLRLSCAASGSIFSIYAMGWYRQAPGKEREFVASITVTDGSTYYADSVKGRFTISRDNAKNTVYLQMNSLKPEDTAVYYCFAVDWYGSGSSYRGSVTYWGQGTQVTVSS,low polyreactivity
15,QVQHVESGGGLVQAGGSLRLSCAASGSIFTSYAMGWSSQAPGKERELVAAITSTGGSTYYADSVKGRFTISRDNAKNTVYLQMNSLKPEDTAVYYCNADGGTPYDYWGQGTQVTVSS,low polyreactivity
16,QVQHVESGGGLVQAGGSLRLSCAASGSIFYQNAMGWYRQAPGKERELVAAISSAGSTYYADSVKGRFTISRDNAKNTVYLQMNSLKPEDTAVYYCARRSSGELGYHIYDYWGQGTQVTVSS,low polyreactivity
17,QVQHVESGGGLVQAGGSLRLSCAASGSIINNYAMGWYRQPPGKERELVADSTYYADSVKGRFTISRDNAKNTVYLQMNSLKPEVTAVYYCAPDDGGGDPEFYWGQGSQVTVSS,high polyreactivity
18,QVQHVESGGGLVQAGGSLRLSCAASGSIISSYAMGRYRQAPGKERELVASISRRGGSTYYADSVKGRFTISRDNAKNTVSLQMNSLKPEDTAVYYCYPSCGPYRYYYCGQGTQVTVSS,low polyreactivity
19,QVQHVESGGGLVQAGGSLRLSCAASGSIIVRYAMGWYRQAPGKERELVASISKRGGSTYYADSVKGRFTISRDNAKNTVYLQMKSLKPDDTAVYYCAAVGYYLVKFDYWGQGTQVTVSS,high polyreactivity
20,QVQHVESGGGLVQAGGSLRLSCAASGSILDGNTMGWYRQSPGKARELVAALTWDCTSTYYADSVKGRFTISRDNAKNSVYLQMNSLKPEDTAVYYCAATKGYSDPSTLYYAYIHYDYWGQGTQVTVSW,low polyreactivity
